From article PMC6239170

Legend:
[1] = molecular target: IMP3 RRM12 (UniProt O00425 1-161); test: ITC
[2] = molecular target: IMP3 RRM12 Y5A (UniProt O00425 1-161, Y5A); test: ITC
Sequence of IMP3 RRM12 Y5A (O00425 1-161 Y5A): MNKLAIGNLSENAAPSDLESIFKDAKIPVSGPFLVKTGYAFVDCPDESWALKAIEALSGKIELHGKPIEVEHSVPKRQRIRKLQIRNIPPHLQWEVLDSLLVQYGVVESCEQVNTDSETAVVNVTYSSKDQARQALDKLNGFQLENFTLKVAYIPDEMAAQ

Sequence of IMP3 RRM12 (O00425 1-161): as the sequence (O00425 1-161 Y5A) above, with A5Y counted along it

Binder	binding result [1]	binding result [2]
UUUU (ssRNA)	no binding	–
ACAC (ssRNA)	–	no binding
GGGG (ssRNA)	no binding	–
